The experiment addresses porcine pancreatic secretory PLA2 enzyme (sPLA2 1B) (porcine) (UniProt P00592). Description: cell-based or functional assay.

This is an account of results in patent US9765127.

UniProt P00592, sequence (P00592 23-146): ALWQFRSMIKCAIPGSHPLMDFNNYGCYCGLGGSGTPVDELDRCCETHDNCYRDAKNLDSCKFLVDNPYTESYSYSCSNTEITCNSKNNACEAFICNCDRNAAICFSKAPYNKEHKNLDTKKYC

“recombinant human SCGB3A2 with N-terminus ATA (from UniProt Q96PL1 19-93)” had a % inhibition of sPLA2-1B activity (fluorescent HPLC assay, cleavage of UNIBIPY substrate) of 83%.
